Measured values published in publication PMC4784663.

Target: Chicken Best1 residues 1–405 (GgBest1) (chicken)
Assay: crystal structure; GgBest1–Fab complex, hanging-drop vapour diffusion; P2_1 form in CYMAL-6 or CYMAL-6-NG, 0–60 mM NaCl, 50 mM sodium acetate pH 4.0, 5% PEG 4000, 20% glycerol; C2 form in DM, 120 mM NaCl, 50 mM Tris pH 8.5, 8.5% PEG 4000, 20% glycerol; sample supplemented with 50 mM GABA

stoichiometry N: 5
Substance: Chicken Best1 residues 1–405 (GgBest1) (domain or fragment)
